Assay results published in US6822073 (KIMBERLY CLARK WORLDWIDE, dated 2004).
Bridges are numbered along the chain shown (N, C = ends). Where no end group is shown, it is not given here.

Key:
[1] = target: T1, bovine pancreatic trypsin (bovine, UniProt P00760 24-246); experiment: ITC, SAP-1 injected into trypsin, 303 K
T1 construct: It was dialyzed into the ITC buffer and flowed over the chip in SPR

[2] = target: T1, bovine pancreatic trypsin; experiment: ITC, SAP-1 (1 mM) injected into trypsin (20 µM), 293 K
Protocol: Figure 7: FIG. 7 provides an ITC analysis of the interaction between SAP-1 and bovine pancreatic trypsin. SAP-1 was dissolved in 20 mM cacadylate (pH 7.0), 20 mM NaCl at a final concentration of 1 mM. Trypsin was dialyzed into the same buffer and was used in the calorimeter cell at a concentration of 20 µM. The temperature was maintained at 20° C. Forty injections of 5 µL each were employed with a 240 second re-equilibrium time between injections.

[3] = target: T1, bovine pancreatic trypsin; experiment: ITC, SAP-2 (1.0 mM) injected into trypsin (20 µM), 25 °C (FIG. 8)
[4] = target: T1, bovine pancreatic trypsin; experiment: isothermal titration calorimetry, 30 °C
Protocol: Figure 6: FIG. 6 provides an ITC analysis of the interaction between SAP and bovine pancreatic trypsin. SAP was dissolved in 20 mM cacodylate (pH 7.0), 20 mM NaCl at a final concentration of 2 mM. Trypsin was dialyzed into the same buffer and was used in the calorimeter cell at a concentration of 20 µM. No binding is evident throughout the titration. The temperature was maintained at 30° C. Forty injections of 5 µL each were employed with a 240 second re-equilibrium time between injections.
The ability of SAP, SAP-1, and SAP-2 to bind bovine pancreatic trypsin was measured by isothermal titration calorimetry (ITC). […] Under all experimental conditions, there is no detectable binding.

T1 sequence (P00760 24-246): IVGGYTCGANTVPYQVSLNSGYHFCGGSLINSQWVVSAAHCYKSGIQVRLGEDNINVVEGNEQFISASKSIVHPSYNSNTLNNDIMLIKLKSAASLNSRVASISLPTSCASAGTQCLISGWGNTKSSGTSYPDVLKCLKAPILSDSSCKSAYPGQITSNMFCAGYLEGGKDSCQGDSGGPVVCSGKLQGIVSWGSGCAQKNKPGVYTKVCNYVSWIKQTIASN

B1: SAP-1 (SAP backbone with the PYRIRF insert from Bovine Pancreatic Trypsin Inhibitor) (designed binder)
chain: CPSQPTYPGDPPYRIRFGPVEDLIRFYDNLQQWLNCVTAAC
notes: It was expressed in E. coli; In SPR it was coupled to the chip through the C-terminal cysteine thiol
Ka [1]: 2.4e+06 M⁻¹ | Stoichiometry [1]: 0.99 | ΔH [1]: -15.4 kcal/mol | ΔS [1]: -21.1 cal mol^-1 K^-1 | Ka [2]: 1.65e+06 M⁻¹ | Stoichiometry [2]: 0.975 | ΔH [2]: -26.1 kcal/mol | ΔS [2]: -11.6 cal mol^-1 K^-1

B2: SAP-2 (SAP backbone with the library-selected YKLKY insert) (designed binder)
chain: CPSQPTYPGDPYKLKYGPVEDLIRFYDNLQQWLNCVTAAC
notes: It was expressed in E. coli; In SPR it was coupled to the chip through the C-terminal cysteine thiol; also called recombinant SAP-2
Ka [3]: 640000 M⁻¹ | Stoichiometry [3]: 0.995 | ΔH [3]: -31.2 kcal/mol | ΔS [3]: -16.2 cal mol^-1 K^-1

B3: SAP (Synthetic Antibody Peptide), parental peptide backbone (designed binder)
chain: MCPSQPTYPGDPGPVEDLIRFYDNLQQWLNCVTAAC
modifications: disulfide 2-31
notes: Re-engineered avian pancreatic polypeptide with no insert; It was expressed in E. coli from pSAPe and purified; also called SAP peptide; SAP molecule
binding result [4]: no binding
